Experiments:
[1] = target: T1, association between PDK1 and Akt1 (Mus musculus, UniProt Q9Z2A0); experiment: PDK and Akt1 interaction assay (cell extracts, IP/western pull-down); type: binding, mouse (C2C12 myotubes); conditions: for association between Akt and PDK1 (co-immunoprecipitation): 5 μM, mixed cell extracts, 30 min at 30° C.
T1 construct: These were relatively enriched with endogenous PDK; expressed in transfected cells; host or cells: mouse C2C12 myotubes infected with Adv WT-Akt; control C2C12 extracts as source of endogenous PDK1
T1 sequence (Q9Z2A0 1-559): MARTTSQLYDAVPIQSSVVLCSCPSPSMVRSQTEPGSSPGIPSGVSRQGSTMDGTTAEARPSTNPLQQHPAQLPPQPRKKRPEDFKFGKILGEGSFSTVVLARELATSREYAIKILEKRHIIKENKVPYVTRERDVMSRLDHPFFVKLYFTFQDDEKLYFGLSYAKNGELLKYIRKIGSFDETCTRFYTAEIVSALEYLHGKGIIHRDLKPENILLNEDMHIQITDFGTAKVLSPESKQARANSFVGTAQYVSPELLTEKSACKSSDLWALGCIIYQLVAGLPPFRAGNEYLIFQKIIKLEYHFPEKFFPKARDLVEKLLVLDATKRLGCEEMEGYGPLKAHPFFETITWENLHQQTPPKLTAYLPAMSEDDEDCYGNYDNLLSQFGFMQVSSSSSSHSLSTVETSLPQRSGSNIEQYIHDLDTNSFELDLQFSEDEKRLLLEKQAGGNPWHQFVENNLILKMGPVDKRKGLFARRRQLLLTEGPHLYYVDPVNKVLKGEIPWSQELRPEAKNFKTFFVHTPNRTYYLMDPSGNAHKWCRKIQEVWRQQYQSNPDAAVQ
Experimental: Accordingly, the effect of Aβ on PDK/Akt interactions may be evaluated in any suitable in vitro assay. In some embodiments, PDK1 may be prepared from extracts of mouse C2C12 myotube cultures. To increase the amount of available Akt, this protein may be prepared from C2C12 myotubes that had previously been infected with an adenovirus expressing wild type Akt (Adv-wtAkt). In some embodiments, to measure the interaction between these proteins, the cell extracts above were mixed for 30 minutes at 30° C. either in the presence or absence of added 5 μM Aβ1-42. […] The inability of PDK1 to interact with its target Akt led to a decrease in Akt activation and a loss of the subsequent downstream phosphorylations (e.g., GSK3β peptide as in FIGS. 3A and 3C, not shown).
For cell-based interaction studies, intracellular Aβ42 production was induced by infecting C2C12 myotubes with Adv Aβ/TetOn. These cell extracts (100 μg) were used to IP endogenous Akt, and from this pull-down, determine the levels of associated PDK by western blot. The in vitro interaction study involved first enriching for Akt through viral-mediated expression of WT-Akt. Akt-enriched/PDK-depleted extract was then prepared by removing the PDK, via immunoprecipitation, from the Akt-enriched cell extract. Akt-depleted extracts were prepared from control extracts by pre-immunoprecipitating Akt. These were relatively enriched with endogenous PDK. The enrichments and depletions were confirmed by western blot analysis. The interaction assay contained a mixture of 100 μg Akt-enriched and 100 μg control cell extract in the presence or absence of Aβ42 (up to 10 μM). The mixtures were incubated for 30 minutes at 30° C., followed by overnight incubation at 4° C. with goat anti-Akt1. Protein G beads were added with mixing for 1.5 hr. PDK1 and Akt1 levels were determined by western blot. In control experiments, 100 μg of Akt-enriched, PDK-depleted extract and 100 μg of a control extract depleted for Akt were mixed in the presence or absence of Aβ42 (up to 5 μM) and subjected to the same analyses.

C2C12 myotubes = experiment: Extracellular peptide or insulin treatment of C2C12 myotubes, western blot of Akt signaling; type: cell-based, mouse
Experimental: The prior cell-based and in vitro experiments are relevant to […] Aβ effects. To determine the specificity of Akt inhibition by […] Aβ, C2C12 myotubes were cultured, and treated with extracellular Aβ25-35, Aβ35-25, Aβ1-42 and Aβ42-1 for 24 hours. In the last 30 minutes before harvest, insulin was added (0.1 μg/ml). While p-Akt (Ser473) and p-GSK-3 α/β levels were increased by insulin treatment (FIG. 9C, lane 2 vs. 1), they were not affected by any of the Aβ treatments. […] There were also no significant changes in p-Akt (Ser473) levels (data not shown). […] PDK itself is subject to phosphorylation (e.g., at Ser 241) and several authors feel that it is constitutively phosphorylated and thus ‘primed’ (Casamayor, A., Morrice, N. A., and Alessi, D. R., 1999, Phosphorylation of Ser-241 is essential for the activity of 3-phosphoinositide-dependent protein kinase-1: identification of five sites of phosphorylation in vivo, Biochem J 342 (Pt 2):287-292). The experiments described herein indicate that p-PDK levels are constitutively high in C2C12 cells and not boosted further by insulin action (FIG. 9E, top). p-PDK levels were not modulated by extracellular (FIG. 9E lower panel) or intracellular Aβ expression (not shown).
In FIG. 9C C2C12 myotubes were bath exposed to AP25-35, reverse AP35-25, AP1-42 and reverse Aβ42-1 peptides for 24 hours before treatment with insulin (0.1 μg/ml, 15 min) Whole cell extracts were subjected to Western analysis for p-Akt (Ser473) (Akt activation) and total Akt levels (top) as well as for endogenous levels of pGSK-3a/p, indicative of Akt activity, and total GSK-3β (lower two blots). […] The increase was not affected by pre-treatment with extracellular AR.
In FIG. 9D C2C12 myotube cultures were exposed to increasing doses of A[i1-42 (0, 10 and 25 μM) for 2 hours before treatment with insulin (0, 20, 100 and 500 ng/ml) for 15 min Harvested cell extracts were used for western blot for p-Akt (Thr308).

Substance: Aβ42: synthetic 42 amino acid β-amyloid peptide, forward sequence, freshly prepared, predominantly monomeric (BioSource)
- association between Akt and PDK1 (co-immunoprecipitation) [1]: pulled-down less PDK
- association between Akt and PDK1 (co-immunoprecipitation) ([1]; listed as Aβ1-42): dramatic reduction
- pull-down of PDK1 with Akt1 ([1]; 10 μM, Akt-enriched plus control extracts): abrogated
- p-PDK (Ser241) levels (C2C12 myotubes; extracellular 1-100 nM, 2 or 24 hours, then insulin 500 ng/ml 30 min): remain unaffected
- p-Akt (Ser473) and p-GSK-3 α/β levels after insulin (C2C12 myotubes; extracellular peptide 24 hours, then insulin 0.1 μg/ml): not affected
- p-Akt (Thr308) levels, insulin dose response (C2C12 myotubes; extracellular, up to 25 μM in the media, insulin 20, 100, 500 ng/ml): did not affect
